Results from publication PMC4313936, “N-Terminal and C-Terminal Domains of Calmodulin Mediate FADD and TRADD Interaction” (PLoS ONE, 2015).

Molecular target: T1, His-CaM (native, Xenopus laevis) (Xenopus laevis, UniProt P0DP33 1-149)
T1 construct: calmodulin, Xenopus laevis, plasmid pET-15b-CaM [41]; also called native untreated CaM; recombinant His-CaM; source: E. coli BL21 (DE3), purified as previously described [8]
Test: pull-down; GST proteins (5 μg) bound to glutathione-sepharose beads incubated with soluble recombinant CaM proteins (His-CaM forms, no-tagged wild-type CaM, Met-to-Leu mutants); 10 mM potassium phosphate pH 7.0, 100 mM KCl, 1% Brij; 2 mM Ca2+ or EGTA in Fig. 2E; western blot with CaM antibody
Conditions: both partners purified

B1: GST-TRADD R235A (natural protein)
chain: MAAGQNGHEEWVGSAYLFVESSLDKVVLSDAYAHPQQKVAVYRALQAALAESGGSPDVLQMLKIHRSDPQLIVQLRFCGRQPCGRFLRAYREGALRAALQRSLAAALAQHSVPLQLELRAGAERLDALLADEERCLSCILAQQPDRLRDEELAELEDALRNLKCGSGARGGDGEVASAPLQPPVPSLSEVKPPPPPPPAQTFLFQGQPVVNRPLSLKDQQTFARSVGLKWRKVGASLQRGCRALRDPALDSLAYEYEREGLYEQAFQLLRRFVQAEGRRATLQRLVEALEENELTSLAEDLLGLTDPNGGLA
notes: TRADD, human, point mutant of GST-TRADD; also called R235A TRADD mutant; source: E. coli BL21 (DE3)
B1: binds.
